# In patent US20100324829A1, “METHOD OF SELECTING HLA-DP4 LIGANDS AND THE APPLICATIONS THEREOF” (priority 2001, published 2010):
# Target: T1, DP401 encoded by the DPA1*0103/DPB1*0401 allele (Homo sapiens, UniProt P04440+P20036)
# T1 sequence (P20036 29-260): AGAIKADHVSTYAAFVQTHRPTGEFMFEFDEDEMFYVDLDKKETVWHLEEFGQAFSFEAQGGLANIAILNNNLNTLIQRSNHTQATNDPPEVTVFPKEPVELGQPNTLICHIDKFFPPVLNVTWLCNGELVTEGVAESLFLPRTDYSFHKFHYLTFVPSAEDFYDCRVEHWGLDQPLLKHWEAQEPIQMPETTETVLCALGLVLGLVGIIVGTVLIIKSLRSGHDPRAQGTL
# T1 sequence (P04440 30-258): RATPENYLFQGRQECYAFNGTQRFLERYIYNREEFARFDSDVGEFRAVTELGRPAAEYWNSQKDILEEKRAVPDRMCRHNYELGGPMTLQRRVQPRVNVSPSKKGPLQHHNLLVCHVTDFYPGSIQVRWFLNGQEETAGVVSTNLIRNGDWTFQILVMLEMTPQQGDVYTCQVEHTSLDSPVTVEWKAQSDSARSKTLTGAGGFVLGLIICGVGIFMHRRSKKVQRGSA
# Details: in words, summary of table V
row,Sequence,DP4-binding capacity
1,LLTQHFVQENYLEY [bMAG 245-258],intermediate
2,RELWWVFYAGDRALEEPHAE [bUL21 283-302],intermediate
3,"GPGAPADVQYDLYLNVANRR [bIL3 127-146, reference compound]",high
4,"GVQIVRQIRSGERFLKIWSQ [bNS-p2, reference compound]",intermediate
5,"IAFNSGMEPGVVAEKV [bMT 451-466, reference compound]",low
6,FNNFTVSFWLRVPKVSA [bTT 947-963],low
